In PMC5938345:

Tests used:
[1] = target: gp350-ECD123-6His (Epstein-Barr virus (strain M81)) (UniProt P03200); assay: SPR; Biacore T200; the three recombinant gp350s immobilised on CM5 chip at pH 5.5 with low RU to avoid avidity; MBP-hCR2 SCR1-2 injected at 30 µl/min; regeneration with 10 mM glycine-HCl pH 1.5; 1:1 fit
[2] = target: gp350-ECDFL-Fc_(mIgG2a) (Epstein-Barr virus (strain M81) | mouse) (UniProt P03200); assay: as above
[3] = target: gp350-ECD123-Fc_(mIgG2a) (Epstein-Barr virus (strain M81) | mouse) (UniProt P03200); assay: as above
[4] = target: gp350-ECD123-Fc_(mIgG2a) (Epstein-Barr virus (strain M81) | mouse) (UniProt P03200); assay: SDS-PAGE under reducing and non-reducing conditions with Western blot; 15 µl supernatants of passage 1 baculovirus stocks, with and without β-ME, 10% SDS-PAGE; detected by anti-His or anti-mouse Fc antibody
[5] = target: gp350-ECD123-Fc_(mIgG2a) (Epstein-Barr virus (strain M81) | mouse) (UniProt P03200); assay: AUC; sedimentation velocity, 20°C, PBS, 35,000 rpm, samples diluted to 1 OD at 280 nm; c(s) and c(M) in Sedfit
[6] = target: gp350-ECDFL-Fc_(mIgG2a) (Epstein-Barr virus (strain M81) | mouse) (UniProt P03200); assay: SDS-PAGE under reducing and non-reducing conditions with Western blot; 15 µl supernatants of passage 1 baculovirus stocks, with and without β-ME, 10% SDS-PAGE; detected by anti-His or anti-mouse Fc antibody
[7] = target: gp350-ECDFL-Fc_(mIgG2a) (Epstein-Barr virus (strain M81) | mouse) (UniProt P03200); assay: AUC; sedimentation velocity, 20°C, PBS, 35,000 rpm, samples diluted to 1 OD at 280 nm; c(s) and c(M) in Sedfit

Substance: MBP-hCR2 SCR1-2 (domain or fragment)
- Kd [1]: 294 nM
- koff [1]: 0.00141 s⁻¹
- kon [1]: 4780 M⁻¹ s⁻¹
- Kd [2]: 68.5 nM
- koff [2]: 0.0012 s⁻¹
- kon [2]: 17600 M⁻¹ s⁻¹
- Kd [3]: 94.6 nM
- koff [3]: 0.00383 s⁻¹
- kon [3]: 40500 M⁻¹ s⁻¹

Substance: gp350-ECD123-Fc_(mIgG2a) (from UniProt P03200-1 1-425) (Fc fusion)
- stoichiometry N [4]: 2
- stoichiometry N [5]: 2

Substance: gp350-ECDFL-Fc_(mIgG2a) (from UniProt P03200-1 1-803) (Fc fusion)
- stoichiometry N [6]: 2
- stoichiometry N [7]: 2
